Source: article PMC2757159 (Biochemistry, 2009)

Molecular target: the molecule itself
Test: SEC

B1: human H46R/H48Q copper-zinc superoxide dismutase (SOD1) double mutant (enzyme)
chain: not shown
  stoichiometry N: 2
